Laboratory results taken from paper PMC10786891, “Massively parallel profiling of RNA-targeting CRISPR-Cas13d”.
Residue numbers refer to the chain shown, from its start. Names and notes keep the numbering of the source.

T1: EsCas13d, nuclease-dead (Eubacterium siraeum, UniProt B0MS50, R295A;H300A;R849A;H854A)
T1 sequence: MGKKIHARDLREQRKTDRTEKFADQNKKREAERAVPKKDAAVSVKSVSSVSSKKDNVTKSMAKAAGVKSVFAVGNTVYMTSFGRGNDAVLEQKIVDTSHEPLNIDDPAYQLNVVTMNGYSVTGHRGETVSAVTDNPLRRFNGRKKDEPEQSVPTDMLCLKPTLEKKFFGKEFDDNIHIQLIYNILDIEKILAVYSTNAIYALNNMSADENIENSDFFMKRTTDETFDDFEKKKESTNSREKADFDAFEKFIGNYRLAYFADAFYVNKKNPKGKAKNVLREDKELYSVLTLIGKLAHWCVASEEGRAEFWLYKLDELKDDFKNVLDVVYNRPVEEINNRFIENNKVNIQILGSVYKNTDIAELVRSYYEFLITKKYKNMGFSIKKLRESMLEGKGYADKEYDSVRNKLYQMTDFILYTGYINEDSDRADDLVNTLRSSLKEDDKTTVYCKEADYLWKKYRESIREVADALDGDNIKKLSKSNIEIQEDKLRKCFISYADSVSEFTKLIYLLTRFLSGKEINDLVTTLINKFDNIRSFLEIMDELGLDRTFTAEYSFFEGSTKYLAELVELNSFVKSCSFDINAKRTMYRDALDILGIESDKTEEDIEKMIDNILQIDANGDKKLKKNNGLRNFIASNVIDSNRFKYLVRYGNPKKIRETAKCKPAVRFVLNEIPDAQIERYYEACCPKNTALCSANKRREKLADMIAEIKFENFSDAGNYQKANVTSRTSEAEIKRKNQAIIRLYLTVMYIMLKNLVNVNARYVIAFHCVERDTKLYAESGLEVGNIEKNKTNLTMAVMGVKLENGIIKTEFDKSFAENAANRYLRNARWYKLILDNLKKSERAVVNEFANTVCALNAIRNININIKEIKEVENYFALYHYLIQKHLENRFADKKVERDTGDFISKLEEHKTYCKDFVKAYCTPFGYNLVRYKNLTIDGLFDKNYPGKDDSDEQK

B1: target 1 insC 3' of 13,insU 3' of 9 (mixed)
RNA 1: CACCCGUGCAAAAAUGCAGGGGUCUAAAACUGAGCGGAUAACCUCUCUAUGG
RNA 2: GGGAAUGGAUCCACAUCUACGAAUUCGUACCAUAGAGAGCGUUAUUCCGCUCACCGAGAUCGGAAGAGCACACGU
B2: target 1 C2G,U19G (mixed)
RNA 1: B1 RNA 1
RNA 2: GGGAAUGGAUCCACAUCUACGAAUUCGUACCAGAGAGAGGUUAUCCGCUGACCGAGAUCGGAAGAGCACACGU
B3: target 1 U19C,C21U (mixed)
RNA 1: B1 RNA 1
RNA 2: B2 RNA 2 with C31U, G33C, G50C
B4: target 1 C6G,C7U (mixed)
RNA 1: B1 RNA 1
RNA 2: B2 RNA 2 with G33U, C45U, C46G, G50C
B5: target 1 insC 3' of 5,insA 3' of 2 (mixed)
RNA 1: B1 RNA 1
RNA 2: GGGAAUGGAUCCACAUCUACGAAUUCGUACCAUAGAGAGGUUAUCCGCCUCAACCGAGAUCGGAAGAGCACACGU
B6: target 1 C4A,U10C (mixed)
RNA 1: B1 RNA 1
RNA 2: B2 RNA 2 with G33U, U42C, C48A, G50C
B7: target 1 insU 3' of 20,insG 3' of 14 (mixed)
RNA 1: B1 RNA 1
RNA 2: GGGAAUGGAUCCACAUCUACGAAUUCGUACCAUUAGAGAGGGUUAUCCGCUCACCGAGAUCGGAAGAGCACACGU
B8: target 1 G5U,C6A (mixed)
RNA 1: B1 RNA 1
RNA 2: B2 RNA 2 with G33U, C46A, G47U, G50C
B9: target 1 insC 3' of 16,insC 3' of 16 (mixed)
RNA 1: B1 RNA 1
RNA 2: B1 RNA 2 with G37C, A38C, C40A, U42G, A44U, U45A
B10: target 1 insG 3' of 14,insC 3' of 8 (mixed)
RNA 1: B1 RNA 1
RNA 2: B1 RNA 2 with C40G, U46C
B11: target 1 C4A,G5A (mixed)
RNA 1: B1 RNA 1
RNA 2: B2 RNA 2 with G33U, G47A, C48A, G50C
B12: target 1 insA 3' of 17,insA 3' of 12 (mixed)
RNA 1: B1 RNA 1
RNA 2: B7 RNA 2 with U34A, A35G, G36A, G42A
B13: target 1 insU 3' of 9,insA 3' of 8 (mixed)
RNA 1: B1 RNA 1
RNA 2: B1 RNA 2 with C40G, G41U, U43A, A44U, U46A
B14: target 1 G12U,U19G (mixed)
RNA 1: B1 RNA 1
RNA 2: B2 RNA 2 with G40U, G50C
B15: target 1 C4A,C22U (mixed)
RNA 1: B1 RNA 1
RNA 2: B2 RNA 2 with C30U, G33U, C48A, G50C
B16: target 1 A9G,A18C (mixed)
RNA 1: B1 RNA 1
RNA 2: B2 RNA 2 with G33U, A34C, A43G, G50C
B17: target 1 insG 3' of 18,insG 3' of 8 (mixed)
RNA 1: B1 RNA 1
RNA 2: B1 RNA 2 with A36G, G37A, A38G, G39A, C40G, U46G
B18: target 1 insU 3' of 18,insC 3' of 13 (mixed)
RNA 1: B1 RNA 1
RNA 2: B7 RNA 2 with U34A, A35U, G41C
B19: target 1 U8A,A9C (mixed)
RNA 1: B1 RNA 1
RNA 2: B2 RNA 2 with G33U, A43C, U44A, G50C
B20: target 1 insG 3' of 16,insA 3' of 15 (mixed)
RNA 1: B1 RNA 1
RNA 2: B7 RNA 2 with U34A, A35G, G36A, A37G, G40A
B21: target 1 insA 3' of 22,insC 3' of 14 (mixed)
RNA 1: B1 RNA 1
RNA 2: B7 RNA 2 with C31A, A32C, U33A, G40C
B22: target 1 G15A,U19A (mixed)
RNA 1: B1 RNA 1
RNA 2: B2 RNA 2 with G33A, G37A, G50C
B23: target 1 insU 3' of 20,insC 3' of 8 (mixed)
RNA 1: B1 RNA 1
RNA 2: B7 RNA 2 with G42U, U44A, A45U, U46C
B24: target 1 insG 3' of 4,insG 3' of 2 (mixed)
RNA 1: B1 RNA 1
RNA 2: B5 RNA 2 with C49G, A52G
B25: target 1 G5C,C6U (mixed)
RNA 1: B1 RNA 1
RNA 2: B2 RNA 2 with G33U, C46U, G47C, G50C
B26: target 1 U8G,U11G (mixed)
RNA 1: B1 RNA 1
RNA 2: B2 RNA 2 with G33U, U41G, U44G, G50C
B27: target 1 C4A,U11A (mixed)
RNA 1: B1 RNA 1
RNA 2: B2 RNA 2 with G33U, U41A, C48A, G50C
B28: target 1 insG 3' of 14,insG 3' of 6 (mixed)
RNA 1: B1 RNA 1
RNA 2: B1 RNA 2 with C40G, U46C, C48G
B29: target 1 C2G,U11A (mixed)
RNA 1: B1 RNA 1
RNA 2: B2 RNA 2 with G33U, U41A
B30: target 1 insU 3' of 14,insG 3' of 8 (mixed)
RNA 1: B1 RNA 1
RNA 2: B1 RNA 2 with G39U, C40G, U46G

These binders were tested against T1, EsCas13d, nuclease-dead (assay: crRNA (strand 1, pre-loaded); Mg2+; 40 mM Tris-HCl pH 7.5, 150 mM NaCl, 6 mM MgCl2, 1 mM DTT, 0.1% Tween-20, 0.2 mg/ml BSA; 25 C; 10 min per concentration, then washed). Conditions: tags: His6-TwinStrep-SUMO cleaved; N-terminal SNAP kept (SNAP-Surface 488); label: 3' end held by stalled T7 RNA polymerase.

Binder	Kd
B1	10 ± 0.5 nM
B2	38 ± 4 nM
B3	5.98 ± 0.2 nM
B4	8.06 ± 0.32 nM
B5	7.87 ± 0.33 nM
B6	5.53 ± 0.31 nM
B7	18.9 ± 0.9 nM
B8	24.3 ± 1.6 nM
B9	72 ± 22 nM
B10	41 ± 5 nM
B11	44 ± 7 nM
B12	42 ± 8 nM
B13	9.8 ± 0.4 nM
B14	35 ± 5 nM
B15	9.2 ± 1 nM
B16	64 ± 7 nM
B17	50 ± 4 nM
B18	49 ± 7 nM
B19	8.9 ± 0.4 nM
B20	17.5 ± 0.9 nM
B21	36 ± 6 nM
B22	60 ± 19 nM
B23	19.1 ± 1 nM
B24	4.72 ± 0.29 nM
B25	11.6 ± 0.4 nM
B26	18.9 ± 0.7 nM
B27	23.9 ± 1.8 nM
B28	10.7 ± 0.9 nM
B29	13.6 ± 1.1 nM
B30	38.1 ± 2.5 nM
